Data from patent US20220298216A1 (SYRACUSE UNIVERSITY, published 2022).
Non-standard residues stand in square brackets, D forms with d. No end group written: not given here. NMeF = CN[C@@H](Cc1ccccc1)C(=O)O; NMeL = CN[C@@H](CC(C)C)C(=O)O; NMeS = CN[C@@H](CO)C(=O)O; Dap = NC[C@H](N)C(=O)O; Sar = CNCC(=O)O

T1: human ghrelin O-acyltransferase (hGOAT) (human, UniProt Q96T53 1-435, limits assumed)
T1 sequence (looked up): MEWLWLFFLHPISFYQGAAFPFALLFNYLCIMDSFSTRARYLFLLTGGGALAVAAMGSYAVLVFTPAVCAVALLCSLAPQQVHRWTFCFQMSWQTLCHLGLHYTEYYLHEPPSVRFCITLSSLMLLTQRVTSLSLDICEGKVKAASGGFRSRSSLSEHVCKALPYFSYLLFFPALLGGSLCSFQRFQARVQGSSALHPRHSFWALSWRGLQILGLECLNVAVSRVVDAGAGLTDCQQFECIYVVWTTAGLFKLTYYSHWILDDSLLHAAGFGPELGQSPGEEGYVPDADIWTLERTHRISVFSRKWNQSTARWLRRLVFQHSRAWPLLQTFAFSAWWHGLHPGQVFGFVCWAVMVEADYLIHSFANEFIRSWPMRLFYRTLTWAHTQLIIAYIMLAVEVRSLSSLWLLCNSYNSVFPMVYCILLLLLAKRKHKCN


Target: T1, human ghrelin O-acyltransferase (hGOAT)
Assay: cell-based or functional assay

Question: With SarSDapN·MeF (peptide) as the molecule, how does the IC50 (µM), inhibitor potency against hGOAT read?
Answer: 1.5 µM

Question: How did the “IC50 (µM), inhibitor potency against hGOAT” value turn out when [Sar]S[Dap]FL [SarSDapFL] was run?
Answer: 0.088 µM

Question: How did the IC50 (µM), inhibitor potency against hGOAT turn out when G[NMeS][Dap]FL [GN·MeSDapFL] was run?
Answer: > 100 µM

Question: Which IC50 (µM), inhibitor potency against hGOAT does the source give for GS[Dap]FL [GSDapFL] here?
Answer: 0.14 µM

Question: Which IC50 (µM), inhibitor potency against hGOAT does the source give for GS[Dap][NMeF]L [GSDapN·MeFL] here?
Answer: 0.097 µM

Question: Which IC50 (µM), inhibitor potency against hGOAT does the source give for [Sar]S[Dap][NMeF][NMeL] [SarSDapN·MeFN·MeL] here?
Answer: 6 µM

Question: With GS[Dap]F[NMeL] [GSDapFN·MeL] as the molecule, how does the IC50 (µM), inhibitor potency against hGOAT read?
Answer: 0.062 µM

Target: ghrelin receptor (GHS-R1a) (Homo sapiens (Human)) (UniProt Q92847)
Sequence (Q92847 whole entry, form in doubt): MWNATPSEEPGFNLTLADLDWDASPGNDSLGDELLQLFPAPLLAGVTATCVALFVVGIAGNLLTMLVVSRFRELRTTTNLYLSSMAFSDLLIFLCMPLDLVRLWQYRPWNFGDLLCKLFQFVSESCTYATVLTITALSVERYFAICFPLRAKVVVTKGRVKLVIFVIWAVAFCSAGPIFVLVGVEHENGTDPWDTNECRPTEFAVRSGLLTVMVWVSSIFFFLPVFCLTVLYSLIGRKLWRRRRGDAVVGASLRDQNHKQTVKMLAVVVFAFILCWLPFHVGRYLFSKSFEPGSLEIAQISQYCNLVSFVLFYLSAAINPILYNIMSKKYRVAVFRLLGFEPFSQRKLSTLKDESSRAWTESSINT
Assay: competition binding assay on the ghrelin receptor, IC50

Question: For “ghrelin-derived peptide with a sarcosine substitution at the G1 position”, which fold loss in binding affinity (IC50) against the unsubstituted peptide is on record?
Answer: > 25 fold

Target: GOAT (human) (UniProt Q96T53)
Assay: GOAT inhibition assay

Question: Which IC50 does the source give for Ac-SDapFL here?
Answer: > 100000 nM

Question: With GSDap as the molecule, how does the IC50 read?
Answer: > 100000 nM

Question: GSDapF was tested. Which IC50 did it give?
Answer: 1200 nM

Question: GS[Dap]FLS was tested. Which IC50 did it give?
Answer: 74 nM

Question: Which IC50 does the source give for SDapFL here?
Answer: > 100000 nM
